For assay [1], the target named is F protein mutant RSV-DS-Cav1-B with a DS-Cav1 structure before fusion (respiratory syncytial virus subtype B, strain 18537) (UniProt P13843).
The target is the same in assay [2]. This is another data set of the same source.

As a reminder, the Kd is the concentration at which binding is half-saturated. Higher therefore signals weaker binding. As a reminder, the koff is the first-order rate constant of dissociation. What is called kon is a measure of how fast the partners come together. Read a low kon as slow association. In general, EC50 (read off the curve) refers to the concentration at which the effect is half-maximal. A higher EC50 (read off the curve) goes with a need for much substance.

anti-RSV monoclonal antibody Nirsevimab (MEDI8897), sequence (VH): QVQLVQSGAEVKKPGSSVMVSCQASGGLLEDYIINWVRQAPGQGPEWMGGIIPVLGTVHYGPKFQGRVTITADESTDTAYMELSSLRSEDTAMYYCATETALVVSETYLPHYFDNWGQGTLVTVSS
anti-RSV monoclonal antibody Nirsevimab (MEDI8897), sequence (VL): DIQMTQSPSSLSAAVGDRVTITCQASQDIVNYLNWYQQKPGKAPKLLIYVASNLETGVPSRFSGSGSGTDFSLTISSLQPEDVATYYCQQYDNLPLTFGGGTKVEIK
anti-RSV monoclonal antibody Clesrovimab (RB1), sequence (VH): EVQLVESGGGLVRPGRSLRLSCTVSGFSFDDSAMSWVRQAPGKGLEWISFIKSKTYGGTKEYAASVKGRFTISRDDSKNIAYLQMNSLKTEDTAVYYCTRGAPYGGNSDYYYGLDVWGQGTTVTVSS
anti-RSV monoclonal antibody Clesrovimab (RB1), sequence (VL): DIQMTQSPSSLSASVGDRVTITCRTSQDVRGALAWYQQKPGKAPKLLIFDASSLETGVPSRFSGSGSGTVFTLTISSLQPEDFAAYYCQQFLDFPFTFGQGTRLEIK

As for “anti-RSV monoclonal antibody Clesrovimab (RB1)”, in assay [1], the Kd turned out to be 0.00895 nM, the off-rate (koff) was determined as 8.21e-05 s⁻¹ and the kon turned out to be 9.17e+06 M⁻¹ s⁻¹.
“anti-RSV monoclonal antibody Nirsevimab (MEDI8897)” showed an EC50 (read off the curve) in assay [2] of 10 nM. In assay [1], this substance showed a Kd of 3.08 nM, a koff of 0.000333 s⁻¹ and a kon of 108000 M⁻¹ s⁻¹.

Source of the values: patent publication US20250388652A1.
